# Assay results reported in patent publication US20250263778A1 (Hoffmann-La Roche, published 2025).
# Where two headings read alike, the source gives them in different places.
# Experiments:
# [1] = target: T1, human LRP8 (Low-density lipoprotein receptor-related protein 8), biotinylated (human, UniProt Q14114 33-826, limits assumed, biotinylated); experiment: ELISA, biotinylated human LRP8
# T1 construct: also called hu-antigen; human antigen
# [2] = target: T2, murine LRP8, biotinylated (murine, UniProt Q924X6 29-858, limits assumed, biotinylated); experiment: ELISA, biotinylated murine LRP8
# T2 construct: also called mu-antigen; murine antigen
# T2 sequence (Q924X6 29-858 limits assumed): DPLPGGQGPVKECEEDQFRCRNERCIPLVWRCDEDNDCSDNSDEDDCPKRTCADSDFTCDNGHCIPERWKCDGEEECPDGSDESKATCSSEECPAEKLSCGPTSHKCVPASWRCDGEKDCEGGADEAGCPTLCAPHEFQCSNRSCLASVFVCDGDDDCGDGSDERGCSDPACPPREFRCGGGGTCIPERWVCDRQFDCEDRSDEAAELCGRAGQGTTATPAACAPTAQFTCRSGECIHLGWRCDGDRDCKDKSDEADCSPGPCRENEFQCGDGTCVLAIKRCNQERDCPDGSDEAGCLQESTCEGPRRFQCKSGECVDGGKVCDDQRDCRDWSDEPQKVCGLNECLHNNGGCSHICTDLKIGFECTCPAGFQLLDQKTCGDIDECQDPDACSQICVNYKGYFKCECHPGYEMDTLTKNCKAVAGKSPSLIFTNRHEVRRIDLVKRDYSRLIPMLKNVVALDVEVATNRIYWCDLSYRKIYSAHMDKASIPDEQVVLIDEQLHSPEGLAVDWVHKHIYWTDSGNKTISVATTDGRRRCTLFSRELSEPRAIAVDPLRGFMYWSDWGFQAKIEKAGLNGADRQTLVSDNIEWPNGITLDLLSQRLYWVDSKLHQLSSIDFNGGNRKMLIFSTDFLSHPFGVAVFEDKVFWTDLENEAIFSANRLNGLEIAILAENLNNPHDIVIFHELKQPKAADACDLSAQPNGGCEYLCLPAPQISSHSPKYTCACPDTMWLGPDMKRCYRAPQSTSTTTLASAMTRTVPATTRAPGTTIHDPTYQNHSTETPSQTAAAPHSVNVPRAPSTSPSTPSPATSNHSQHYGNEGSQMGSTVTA
# [3] = target: T2, murine LRP8, biotinylated; experiment: ELISA, biotinylated murine LRP8; remark: listed apart in the source
# [4] = target: T1, human LRP8 (Low-density lipoprotein …); experiment: ELISA, biotinylated human LRP8; remark: listed apart in the source
# Method: The antigen, biotinylated human LRP8, was incubated with 5 μL sample containing the anti-LRP8 antibody at a concentration of 250 ng/mL in a total volume of 25 μL in PBS, 0.5% BSA and 0.05% Tween in a 384 w microtiterplate (Maxisorb (with Streptavidin, Nunc). After 1.5 hrs. incubation at 25° C. unbound antibody was removed by washing 6 times with 90 μL PBS (dispense and aspiration). The antigen-antibody complex was detected by an anti-rabbit antibody conjugated to POD (ECL anti-rabbit IgG-POD, Cat. No. NA9340V; POD=peroxidase). 20-30 min after adding 35 μL POD-substrate 3,3′,5,5′-tetramethyl benzidine (TMB; Piercenet, Cat. No. 34021) the optical density was determined at 370 nm. The EC₅₀ value was calculated with a four parameter logistic model using GraphPad Prism 6.0 software.
# T1 sequence (Q14114 33-826 limits assumed): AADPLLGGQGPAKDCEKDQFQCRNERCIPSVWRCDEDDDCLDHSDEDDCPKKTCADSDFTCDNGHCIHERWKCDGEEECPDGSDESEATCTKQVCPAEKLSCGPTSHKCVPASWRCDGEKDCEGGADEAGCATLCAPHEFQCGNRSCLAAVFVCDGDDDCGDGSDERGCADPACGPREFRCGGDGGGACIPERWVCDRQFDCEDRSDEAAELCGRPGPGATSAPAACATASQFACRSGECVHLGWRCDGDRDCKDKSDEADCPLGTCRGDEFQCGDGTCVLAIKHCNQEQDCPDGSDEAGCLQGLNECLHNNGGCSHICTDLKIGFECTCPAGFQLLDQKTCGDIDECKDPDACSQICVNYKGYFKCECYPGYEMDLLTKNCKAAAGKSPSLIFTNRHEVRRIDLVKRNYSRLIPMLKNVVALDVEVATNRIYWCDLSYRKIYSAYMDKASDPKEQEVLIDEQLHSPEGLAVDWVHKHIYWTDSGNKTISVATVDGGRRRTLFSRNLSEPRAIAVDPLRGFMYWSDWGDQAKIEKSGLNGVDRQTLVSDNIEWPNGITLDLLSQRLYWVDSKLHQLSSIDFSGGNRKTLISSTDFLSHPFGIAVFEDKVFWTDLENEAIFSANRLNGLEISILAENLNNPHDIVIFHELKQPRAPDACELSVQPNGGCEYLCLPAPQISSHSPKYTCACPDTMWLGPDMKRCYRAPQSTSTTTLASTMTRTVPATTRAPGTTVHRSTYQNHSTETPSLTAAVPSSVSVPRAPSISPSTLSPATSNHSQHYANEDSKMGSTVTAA
Binder,EC50 [1] [µg/mL],EC50 [2] [µg/mL],EC50 [3] [µg/mL],EC50 [4] [µg/mL]
"BCC.763 (antibody, V domains shown, Rabbit IgG, kappa; also called antibody 763) VH: CQSVEESGGRLVTPGTPLTLTCTASGFSLSSYNMNWVRQAPGKGLEWIGYINKGGSAYYASWAKGRFTISRTSTTVDLKMTSPTTEDTATYFCVRSGGGGNLNLWGQGTLVTVSS VL: AAVLTQTPSPVSAAVGGTVTISCQSSPNILGNYLSWFQQKPGQPPKLLIYYTSTLASGVPSRFKGSGSGTQFTLTISDVQCDDAATYYCLGVYRSDSDNVFGGGTEVVVK",< 0.02,< 0.02,< 0.02,< 0.02
"BCC.763-1 (antibody, V domains shown, recombinant rabbit IgG, kappa; Positions are Wolfguy indices, not positions on the entry; tie inferred) VH: CQSVEESGGRLVTPGTPLTLTCTASGFSLSSYNMNWVRQAPGKGLEWIGYINKGGSAYYASWAKGRFTISRTSTTVDLKMTSPTPEDTATYFCVRSGGGGNLNLWGQGTLVTVSS VL: AAVLTQTPSPVSAAVGGTVTISCQSSPNILGNYLSWFQQKPGQPPKLLIYYTSTLASGVPSRFKGSGSGTQFTLTISDVQCDDAATYYCLGVYRSDSDNVFGGGTEVVVK",< 0.02,< 0.02,,
"BCC.763-2 (antibody, V domains shown, recombinant rabbit IgG, kappa; Positions are Wolfguy indices; tie inferred; also called VH variant 2103:7194:16368 1:N:0:1) VH: CQSVEESGGRLVTPGTPLTLTCTASGFSLSSYNMNWVRQAPGKGLAWIGYINKGGSAYYASWAKGRFTISKTSTTVDLKMTSPTTEDTATYFCVRSGGGGNLNLWGQGTLVTVSS VL: AAVLTQTPSPVSAAVGGTVTISCQSSPNILGNYLSWFQQKPGQPPKLLIYYTSTLASGVPSRFKGSGSGTQFTLTISDVQCDDAATYYCLGVYRSDSDNVFGGGTEVVVK",< 0.02,< 0.02,,
"BCC.763-4 (antibody, V domains shown, recombinant rabbit IgG, kappa; Positions are Wolfguy indices; tie inferred; copies: 2 + 2) VH: CQSVEESGGRLVTPGTPLTLTCTASGFSLSSYNMNWVRQAPGKGLEWIGYINKGGSAYDANWAKGRFTISRTSTTVDLKMTSPTPEDTATYFCVRSGGGGNLNLWGQGTLVTVSS VL: AAVLTQTPSPVSAAVGGTVTISCQSSPNILGNYLSWFQQKPGQPPKLLIYYTSTLASGVPSRFKGSGSGTQFTLTISDVQCDDAATYYCLGVYRSDSDNVFGGGTEVVVK",< 0.05,< 0.02,,
